According to PMC13200811 (Cell, 2025):
Changes are numbered by the printed parent chain. Numbers in names are those of the source. Where two headings read alike, the source gives them in different places. One block for each molecule: values may come before it.

Experiments:
[1] = target: BCL-wΔNΔC (aa 40-156; α2-α8) (human) (UniProt Q92843); experiment: SEC
[2] = target: BCL-wΔN (aa 40-193; α2-α9) (human) (UniProt Q92843); experiment: SEC
[3] = target: T1, full-length monomeric BCL-w (aa 1-193) (human), Q92843; experiment: SEC-MALS; settings: remark: other sources report otherwise
T1 chain: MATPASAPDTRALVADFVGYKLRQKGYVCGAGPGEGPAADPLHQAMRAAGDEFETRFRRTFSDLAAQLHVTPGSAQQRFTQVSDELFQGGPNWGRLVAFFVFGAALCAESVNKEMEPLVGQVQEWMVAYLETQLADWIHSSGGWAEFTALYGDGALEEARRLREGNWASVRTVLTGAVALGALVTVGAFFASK

[4] = target: T1, full-length monomeric BCL-w (aa 1-193) …; experiment: SEC-SAXS; settings: remark: other sources report otherwise
[5] = target: the molecule itself; experiment: SEC
[6] = target: the molecule itself; experiment: SEC; remark: listed apart in the source

- stoichiometry N [1]: 2
Molecule: BCL-wΔNΔC (aa 40-156; α2-α8) (from UniProt Q92843 40-156) (domain or fragment)

- stoichiometry N [2]: 2
Molecule: BCL-wΔN (aa 40-193; α2-α9) (from UniProt Q92843 40-193) (domain or fragment)

- stoichiometry N [3]: 2
- stoichiometry N [4]: 2
B1: full-length monomeric BCL-w (aa 1-193), Q92843 1-193 (natural protein)
chain: T1 chain

B2: BCL-w G94E (full length) (natural protein, human, UniProt Q92843 1-193, looked up)
chain: T1 chain with G94E
- stoichiometry N [5]: 2

B3: GFP-BCL-w α1-α8 (aa 1-156) (domain or fragment, human, UniProt Q92843 1-156, looked up)
chain: MATPASAPDTRALVADFVGYKLRQKGYVCGAGPGEGPAADPLHQAMRAAGDEFETRFRRTFSDLAAQLHVTPGSAQQRFTQVSDELFQGGPNWGRLVAFFVFGAALCAESVNKEMEPLVGQVQEWMVAYLETQLADWIHSSGGWAEFTALYGDGAL
- stoichiometry N [6]: 2

B4: BCL-wΔC (aa 1-156; α1-α8) (domain or fragment, human, UniProt Q92843 1-156, looked up)
chain: B3 chain
- stoichiometry N [5]: 2
